Patent US11141492B2, “Anticancer combinations” (City of Hope, priority 2013, dated 2021)

Tests used:
[1] = tested on: hyaluronan; test: Hyaluronan staining of KPC-luc tumor sections; format: in vivo, mice; conditions: forty-eight hours after treatment; 14 day orthotopic tumors
[2] = tested on: KPC-luc tumors; test: Orthotopic KPC-luc pancreatic tumor model, intravital imaging (IVIS); format: in vivo, C57BL/6 mice; conditions: PEGPH20 4.5 mg/kg (~90 ug/mouse) i.v. day 7; shIDO-ST 5×10^6 cfu/mouse i.v. day 8 (alone: days 8 and 12); n=3
Method: To determine the effects of shIDO-ST and PEGPH20™, nine C57BL/6 mice were injected orthotopically (in the pancreas) with 5×10^5 KPC-luc cells. Three small groups (n=3) were created: shIDO-ST alone, PEGPH20™ alone, and shIDO-ST with PEGPH20™. The shIDO-ST alone group received shIDO-ST at a dose of 5×10^6 cfu/mouse through intravenous (i.v.) injection on days 8 and 12. PEGPH20™ alone group received PEGPH20™ at a dose of 4.5 mg/kg (˜90 ug/mouse) on day 7 through i.v. injection. The combination (PEGPH20™ with shIDO-ST) group received PEGPH20™ at 4.5 mg/kg on day 7 followed by treatment with shIDO-ST on day 8 at 5×10^6 cfu/mouse. Mice were imaged using an intravital imaging system (IVIS) at indicated time points after tumor cell implantation. […]
Titration of combination treatment with shIDO-ST and PEGPH20™ was performed to reduce the toxicity observed in initial experiment (FIG. 2). […] Photons emitted from mice imaged in FIG. 2 were quantitated using Living Image® software.
Due to the sensitivity of 7 day KPC-luc tumors to the combination PEGPH20™ and […] treatment (FIG. 2), treatment of implanted KPC-luc tumors was delayed to day 14. […] Doses (previously determined from titration studies described in FIG. 2) consisted of 45 ug of PEGPH20™ followed by 5×10^6 cfu/mouse of shIDO-ST or shScr-ST. […] Photons emitted from mice imaged in FIG. 4 were quantitated using Living Image® software. […]

[3] = tested on: vessels within the tumor mass; test: Anti-CD31 staining of vessels within the tumor mass; format: in vivo, mice; conditions: 14 day tumors, versus untreated (majority of closed vessels)
Source text: Sections from 14 day tumors of mice untreated or treated with PEGPH20 were stained with anti-CD31 antibody to locate cross sections of vessels within the tumor mass. FITC-conjugated secondary specific to CD31 primary and DAPI staining were visualized by fluorescence microscopy.

B1: PEGPH20™: pegylated recombinant human hyaluronidase PH-20 (Halozyme, Inc.) (protein, listed as Homo Sapiens)
chain: MGVLKFKHIFFRSFVKSSGVSQIVFTFLLIPCCLTLNFRAPPVIPNVPFLWAWNAPSEFCLGKFDEPLDMSLFSFIGSPRINATGQGVTIFYVDRLGYYPYIDSITGVTVNGGIPQKISLQDHLDKAKKDITFYMPVDNLGMAVIDWEEWRPTWARNWKPKDVYKNRSIELVQQQNVQLSLTEATEKAKQEFEKAGKDFLVETIKLGKLLRPNHLWGYYLFPDCYNHHYKKPGYNGSCFNVEIKRNDDLSWLWNESTALYPSIYLNTQQSPVAATLYVRNRVREAIRVSKIPDAKSPLPVFAYTRIVFTDQVLKFLSQDELVYTFGETVALGASGIVIWGTLSIMRSMKSCLLLDNYMETILNPYIINVTLAAKMCSQVLCQEQGVCIRKNWNSSDYLHLNPDNFAIQLEKGGKFTVRGKPTLEDLEQFSEKFYCSCYSTLSCKEKADVKDTDAVDVCIADGVCIDAFLKPPMETEEPQIFYNASPSTLSATMFIVSILFLIISSVASL
modifications: PEGylated
hyaluronan in KPC-luc tumor tissue sections [1]: significant depletion of hyaluronan
tumor growth by IVIS imaging [2]: euthanized due to significantly large tumors
open vessels in tumors (CD31 staining) [3]: Many more open vessels
